The text below walks through data of PMC3258384 (Journal of Molecular Biology, 2011).

The assay concerns the target Human calmodulin (human, UniProt P0DP23 1-149). Put plainly: circular dichroism. On the technique in general: Circular dichroism is widely used to follow secondary structure.

With ARKEVIRNKIRAIGKMARVFSVLR [pCaN peptide, the CaM binding region in the RD of αCaN], the binding result is “binds”.
